Measurements taken from patent US20170306033A1 (Amgen, published 2017).
Residue numbers refer to the chain shown, from its start.

Assays:
[1] = molecular target: human CGRP receptor (human, UniProt Q16602 23-461; O60894 27-148); assay: cell-based or functional assay
[2] = molecular target: T1, human PAC1 receptor (human, UniProt P41586 21-468); assay: cell-based or functional assay
T1 sequence: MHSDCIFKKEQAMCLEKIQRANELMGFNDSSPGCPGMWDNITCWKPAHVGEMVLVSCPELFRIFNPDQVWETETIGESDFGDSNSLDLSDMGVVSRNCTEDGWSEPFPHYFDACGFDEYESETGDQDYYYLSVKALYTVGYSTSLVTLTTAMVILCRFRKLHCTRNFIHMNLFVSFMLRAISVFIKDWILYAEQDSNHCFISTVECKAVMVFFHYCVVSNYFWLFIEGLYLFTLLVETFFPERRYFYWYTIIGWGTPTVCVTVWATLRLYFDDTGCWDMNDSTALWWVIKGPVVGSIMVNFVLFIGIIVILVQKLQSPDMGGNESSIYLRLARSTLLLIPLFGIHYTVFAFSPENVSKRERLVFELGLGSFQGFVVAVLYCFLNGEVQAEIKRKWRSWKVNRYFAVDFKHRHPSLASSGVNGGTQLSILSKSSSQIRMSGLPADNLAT

Sequence of human CGRP receptor (Q16602 23-461 limits assumed, chain 1 of 2): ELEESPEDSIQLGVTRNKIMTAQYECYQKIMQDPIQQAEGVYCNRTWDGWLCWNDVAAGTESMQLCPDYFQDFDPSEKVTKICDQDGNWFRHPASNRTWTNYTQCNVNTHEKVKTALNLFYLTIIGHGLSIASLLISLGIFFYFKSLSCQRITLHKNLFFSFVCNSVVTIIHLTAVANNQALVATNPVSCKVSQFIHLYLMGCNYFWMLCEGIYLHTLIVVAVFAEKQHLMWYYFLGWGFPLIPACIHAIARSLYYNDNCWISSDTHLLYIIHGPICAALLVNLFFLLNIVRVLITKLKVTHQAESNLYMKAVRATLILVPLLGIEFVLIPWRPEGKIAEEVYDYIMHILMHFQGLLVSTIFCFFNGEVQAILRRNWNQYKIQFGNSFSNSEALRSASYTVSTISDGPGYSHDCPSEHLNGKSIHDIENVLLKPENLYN
Sequence of human CGRP receptor (O60894 27-148 limits assumed, chain 2 of 2): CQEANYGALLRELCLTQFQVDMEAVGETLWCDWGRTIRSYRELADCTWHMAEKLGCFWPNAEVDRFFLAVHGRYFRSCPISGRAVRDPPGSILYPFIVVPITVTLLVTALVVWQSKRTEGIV

B1: iPS:392524 (bispecific antibody, human IgG1, kappa, lambda, N297G)
light: QSVLTQPPSVSAAPGQKVTISCSGSSSNIGNNYVSWYQQLPGTAPKLLIYDNNKRPSGIPDRFSGSKSGTSTTLGITGLQTGDEADYYCGTWDSRLSAVVFGGGTKLTVLGQPKANPTVTLFPPSSEELQANKATLVCLISDFYPGAVTVAWKADGSPVKAGVETTKPSKQSNNKYAAKSYLSLTPEQWKSHRSYSCQVTHEGSTVEKTVAPTECS
heavy: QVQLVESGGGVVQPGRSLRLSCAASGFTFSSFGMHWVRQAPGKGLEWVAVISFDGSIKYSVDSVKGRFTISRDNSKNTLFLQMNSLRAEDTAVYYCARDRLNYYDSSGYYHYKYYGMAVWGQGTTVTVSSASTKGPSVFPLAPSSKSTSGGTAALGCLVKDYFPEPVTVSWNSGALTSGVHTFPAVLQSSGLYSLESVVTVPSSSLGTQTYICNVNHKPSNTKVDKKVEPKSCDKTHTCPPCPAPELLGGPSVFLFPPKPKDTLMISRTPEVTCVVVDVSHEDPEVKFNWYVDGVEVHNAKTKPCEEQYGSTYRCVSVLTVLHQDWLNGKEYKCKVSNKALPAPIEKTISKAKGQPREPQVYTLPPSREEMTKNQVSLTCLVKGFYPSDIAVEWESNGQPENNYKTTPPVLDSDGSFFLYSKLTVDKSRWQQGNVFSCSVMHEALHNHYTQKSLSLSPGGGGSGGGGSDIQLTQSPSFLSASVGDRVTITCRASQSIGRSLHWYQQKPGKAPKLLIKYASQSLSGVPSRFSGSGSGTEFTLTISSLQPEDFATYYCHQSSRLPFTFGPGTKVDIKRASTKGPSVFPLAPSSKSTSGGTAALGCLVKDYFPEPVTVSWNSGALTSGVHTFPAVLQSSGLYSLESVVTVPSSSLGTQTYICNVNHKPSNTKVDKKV
chain: QVQLVESGAEVVKPGASVKVSCKASGFTFSRFAMHWVRQAPGQGLEWMGVISYDGGNKYYAESVKGRVTMTRDTSTSTLYMELSSLRSEDTAVYYCARGYDVLTGYPDYWGQGTLVTVSSTVAAPSVFIFPPSDEQLKSGTASVVCLLNNFYPREAKVQWKVDNALQSGNSQESVTEQDSKDSTYSLKSTLTLSKADYEKHKVYACEVTHQGLSSPVTKSFNRGEC
Human CGRP Receptor IC50 [1]: 0.86 nM
Human PAC1 Receptor IC50 [2]: 81.2 nM

B2: iPS:392533 (bispecific antibody, human IgG1, kappa, lambda, N297G)
light: B1 light
heavy: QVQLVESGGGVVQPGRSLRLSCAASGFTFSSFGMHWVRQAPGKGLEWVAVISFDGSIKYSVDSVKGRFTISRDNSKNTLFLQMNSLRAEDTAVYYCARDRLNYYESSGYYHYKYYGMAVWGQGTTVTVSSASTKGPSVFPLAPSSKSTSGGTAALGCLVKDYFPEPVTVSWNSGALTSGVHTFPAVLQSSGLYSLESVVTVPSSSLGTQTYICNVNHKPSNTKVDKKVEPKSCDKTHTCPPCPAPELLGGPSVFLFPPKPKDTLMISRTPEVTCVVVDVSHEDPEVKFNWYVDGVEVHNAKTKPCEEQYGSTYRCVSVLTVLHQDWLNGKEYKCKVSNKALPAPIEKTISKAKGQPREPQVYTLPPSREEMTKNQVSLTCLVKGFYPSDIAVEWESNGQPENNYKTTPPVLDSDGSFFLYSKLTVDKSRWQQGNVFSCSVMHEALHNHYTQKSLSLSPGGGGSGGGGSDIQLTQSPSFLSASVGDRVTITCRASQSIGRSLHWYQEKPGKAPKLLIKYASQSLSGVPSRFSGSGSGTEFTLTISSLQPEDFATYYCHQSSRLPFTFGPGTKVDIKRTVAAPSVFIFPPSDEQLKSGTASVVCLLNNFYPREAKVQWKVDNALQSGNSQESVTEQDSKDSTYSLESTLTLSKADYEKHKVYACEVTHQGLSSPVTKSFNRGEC
chain: QVQLVESGAEVVKPGASVKVSCKASGFTFSRFAMHWVRKAPGQGLEWMGVISYDGGNKYYAESVKGRVTMTRDTSTSTLYMELSSLRSEDTAVYYCARGYDVLTGYPDYWGQGTLVTVSSASTKGPSVFPLAPSSKSTSGGTAALGCLVKDYFPEPVTVSWNSGALTSGVHTFPAVLQSSGLYSLKSVVTVPSSSLGTQTYICNVNHKPSNTKVDKKV
Human CGRP Receptor IC50 [1]: 0.59 nM
Human PAC1 Receptor IC50 [2]: 206 nM

B3: iPS:392529 (bispecific antibody, human IgG1, kappa, lambda, N297G)
light: B1 light
heavy: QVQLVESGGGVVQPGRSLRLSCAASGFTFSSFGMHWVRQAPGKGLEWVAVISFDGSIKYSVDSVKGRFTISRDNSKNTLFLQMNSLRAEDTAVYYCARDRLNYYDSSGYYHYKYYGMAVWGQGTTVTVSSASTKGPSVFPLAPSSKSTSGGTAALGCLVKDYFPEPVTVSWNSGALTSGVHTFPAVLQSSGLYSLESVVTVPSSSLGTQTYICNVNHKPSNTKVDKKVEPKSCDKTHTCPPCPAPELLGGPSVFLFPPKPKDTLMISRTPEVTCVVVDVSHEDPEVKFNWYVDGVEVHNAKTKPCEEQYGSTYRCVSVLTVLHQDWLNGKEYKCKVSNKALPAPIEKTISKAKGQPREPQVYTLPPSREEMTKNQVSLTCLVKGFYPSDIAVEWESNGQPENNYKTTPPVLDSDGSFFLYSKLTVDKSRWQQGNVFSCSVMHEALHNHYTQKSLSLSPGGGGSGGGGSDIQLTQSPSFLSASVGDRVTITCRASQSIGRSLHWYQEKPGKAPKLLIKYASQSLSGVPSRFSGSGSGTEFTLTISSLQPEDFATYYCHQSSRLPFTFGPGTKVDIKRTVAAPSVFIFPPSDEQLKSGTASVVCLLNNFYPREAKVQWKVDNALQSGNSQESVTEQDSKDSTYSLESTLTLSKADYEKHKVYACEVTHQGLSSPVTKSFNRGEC
chain: B2 chain
Human CGRP Receptor IC50 [1]: 0.56 nM
Human PAC1 Receptor IC50 [2]: > 1000 nM

B4: iPS:392532 (bispecific antibody, human IgG1, kappa, lambda, N297G)
light: B1 light
heavy: not shown
chain: B2 chain with K39Q
Human CGRP Receptor IC50 [1]: 0.51 nM
Human PAC1 Receptor IC50 [2]: 352 nM

B5: iPS:392534 (bispecific antibody, human IgG1, kappa, lambda, N297G)
light: B1 light with Q39K
heavy: not shown
chain: B2 chain with K39Q
Human CGRP Receptor IC50 [1]: 0.37 nM
Human PAC1 Receptor IC50 [2]: 349 nM

B6: iPS:392530 (bispecific antibody, human IgG1, kappa, lambda, N297G)
light: B1 light with Q39K
heavy: not shown
chain: B2 chain with K39Q
Human CGRP Receptor IC50 [1]: 0.38 nM
Human PAC1 Receptor IC50 [2]: > 1000 nM

B7: iPS:392531 (bispecific antibody, human IgG1, kappa, lambda, N297G)
light: B1 light with Q39K
heavy: not shown
chain: B2 chain
Human CGRP Receptor IC50 [1]: 0.42 nM
Human PAC1 Receptor IC50 [2]: > 1000 nM

B8: iPS:392526 (bispecific antibody, human IgG1, kappa, lambda, N297G)
light: B1 light
heavy: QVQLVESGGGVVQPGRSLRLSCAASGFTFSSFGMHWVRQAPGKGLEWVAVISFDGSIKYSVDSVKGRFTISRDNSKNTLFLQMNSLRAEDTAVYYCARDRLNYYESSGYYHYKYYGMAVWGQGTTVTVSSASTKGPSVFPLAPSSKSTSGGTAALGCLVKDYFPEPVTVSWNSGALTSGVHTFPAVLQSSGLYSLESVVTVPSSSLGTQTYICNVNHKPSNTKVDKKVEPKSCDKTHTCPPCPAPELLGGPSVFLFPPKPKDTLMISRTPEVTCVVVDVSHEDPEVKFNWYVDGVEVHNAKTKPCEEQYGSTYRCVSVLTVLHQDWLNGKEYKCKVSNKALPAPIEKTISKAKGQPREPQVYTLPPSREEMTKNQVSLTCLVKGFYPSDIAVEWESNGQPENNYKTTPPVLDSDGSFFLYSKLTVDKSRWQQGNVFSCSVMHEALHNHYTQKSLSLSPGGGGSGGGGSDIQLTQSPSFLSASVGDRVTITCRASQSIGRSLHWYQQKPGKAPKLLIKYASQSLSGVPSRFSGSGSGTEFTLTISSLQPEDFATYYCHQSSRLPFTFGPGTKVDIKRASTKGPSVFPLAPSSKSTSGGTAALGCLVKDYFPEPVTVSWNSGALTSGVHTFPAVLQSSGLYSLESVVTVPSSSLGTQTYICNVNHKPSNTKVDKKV
chain: B1 chain
Human CGRP Receptor IC50 [1]: 0.71 nM
Human PAC1 Receptor IC50 [2]: 116 nM

B9: iPS:392525 (bispecific antibody, human IgG1, kappa, lambda, N297G)
light: B1 light
heavy: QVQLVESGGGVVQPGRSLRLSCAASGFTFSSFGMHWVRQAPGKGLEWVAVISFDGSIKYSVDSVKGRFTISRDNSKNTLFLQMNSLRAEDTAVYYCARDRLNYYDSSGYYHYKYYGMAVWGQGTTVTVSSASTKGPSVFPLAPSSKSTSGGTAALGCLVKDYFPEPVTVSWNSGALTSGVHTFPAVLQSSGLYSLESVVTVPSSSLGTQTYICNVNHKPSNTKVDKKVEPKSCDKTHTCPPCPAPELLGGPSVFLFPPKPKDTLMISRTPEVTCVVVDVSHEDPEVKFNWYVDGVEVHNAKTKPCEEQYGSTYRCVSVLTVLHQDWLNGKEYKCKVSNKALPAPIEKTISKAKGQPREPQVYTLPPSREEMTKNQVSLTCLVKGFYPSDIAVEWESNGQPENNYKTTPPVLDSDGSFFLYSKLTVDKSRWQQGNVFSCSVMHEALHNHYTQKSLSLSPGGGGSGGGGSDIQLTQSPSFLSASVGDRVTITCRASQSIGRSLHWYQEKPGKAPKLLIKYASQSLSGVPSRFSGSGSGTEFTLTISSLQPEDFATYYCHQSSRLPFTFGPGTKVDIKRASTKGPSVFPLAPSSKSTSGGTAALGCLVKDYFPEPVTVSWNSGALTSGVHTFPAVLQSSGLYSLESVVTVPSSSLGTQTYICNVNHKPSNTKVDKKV
chain: B1 chain with Q39K
Human CGRP Receptor IC50 [1]: 1.22 nM
Human PAC1 Receptor IC50 [2]: 37.1 nM

B10: iPS:392527 (bispecific antibody, human IgG1, kappa, lambda, N297G)
light: B1 light
heavy: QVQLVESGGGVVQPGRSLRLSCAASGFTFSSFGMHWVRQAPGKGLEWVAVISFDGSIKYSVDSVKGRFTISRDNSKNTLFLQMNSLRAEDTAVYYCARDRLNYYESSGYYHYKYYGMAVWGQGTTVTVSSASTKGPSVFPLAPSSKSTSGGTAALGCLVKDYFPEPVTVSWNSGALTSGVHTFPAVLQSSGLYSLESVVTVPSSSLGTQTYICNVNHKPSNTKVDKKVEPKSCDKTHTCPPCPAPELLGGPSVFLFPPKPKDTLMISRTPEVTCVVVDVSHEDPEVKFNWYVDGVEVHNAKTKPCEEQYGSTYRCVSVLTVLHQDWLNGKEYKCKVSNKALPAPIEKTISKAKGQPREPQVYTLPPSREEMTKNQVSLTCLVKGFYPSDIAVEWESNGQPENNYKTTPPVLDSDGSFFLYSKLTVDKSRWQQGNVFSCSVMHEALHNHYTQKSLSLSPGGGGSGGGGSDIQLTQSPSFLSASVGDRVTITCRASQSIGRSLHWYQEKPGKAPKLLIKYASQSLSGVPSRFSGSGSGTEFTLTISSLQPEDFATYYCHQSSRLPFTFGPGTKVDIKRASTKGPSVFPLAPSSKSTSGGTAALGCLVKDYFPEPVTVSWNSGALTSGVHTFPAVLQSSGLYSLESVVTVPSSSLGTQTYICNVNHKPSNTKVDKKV
chain: B1 chain with Q39K
Human CGRP Receptor IC50 [1]: 0.42 nM
Human PAC1 Receptor IC50 [2]: 16.4 nM

B11: iPS:392528 (bispecific antibody, human IgG1, kappa, lambda, N297G)
light: B1 light
heavy: not shown
chain: B2 chain with K39Q
Human CGRP Receptor IC50 [1]: 0.55 nM
Human PAC1 Receptor IC50 [2]: > 1000 nM

B12: iPS:392535 (bispecific antibody, human IgG1, kappa, lambda, N297G)
light: B1 light with Q39K
heavy: not shown
chain: B2 chain
Human CGRP Receptor IC50 [1]: 0.41 nM
Human PAC1 Receptor IC50 [2]: 365 nM
